Results reported in the supplement of paper PMC10065799, “High-throughput profiling of sequence recognition by tyrosine kinases and SH2 domains using bacterial peptide display” (eLife, 2023).

Target: FGFR3 (UniProt P22607)
Experiment: phosphorylation enrichment, bacterial display (enrichment ratio); higher = better substrate or ligand; peptides without Tyr show the background
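Also: 11-residue human phosphosite peptides and single-mutation variants displayed on the E. coli surface, counted by deep sequencing, each peptide's frequency after selection divided by its frequency in the unselected input library; frequency after pTyr selection over input frequency; kinase dosed for 20-30% of maximal phosphorylation in three min.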

FGFR3, sequence (P22607 whole entry, looked up): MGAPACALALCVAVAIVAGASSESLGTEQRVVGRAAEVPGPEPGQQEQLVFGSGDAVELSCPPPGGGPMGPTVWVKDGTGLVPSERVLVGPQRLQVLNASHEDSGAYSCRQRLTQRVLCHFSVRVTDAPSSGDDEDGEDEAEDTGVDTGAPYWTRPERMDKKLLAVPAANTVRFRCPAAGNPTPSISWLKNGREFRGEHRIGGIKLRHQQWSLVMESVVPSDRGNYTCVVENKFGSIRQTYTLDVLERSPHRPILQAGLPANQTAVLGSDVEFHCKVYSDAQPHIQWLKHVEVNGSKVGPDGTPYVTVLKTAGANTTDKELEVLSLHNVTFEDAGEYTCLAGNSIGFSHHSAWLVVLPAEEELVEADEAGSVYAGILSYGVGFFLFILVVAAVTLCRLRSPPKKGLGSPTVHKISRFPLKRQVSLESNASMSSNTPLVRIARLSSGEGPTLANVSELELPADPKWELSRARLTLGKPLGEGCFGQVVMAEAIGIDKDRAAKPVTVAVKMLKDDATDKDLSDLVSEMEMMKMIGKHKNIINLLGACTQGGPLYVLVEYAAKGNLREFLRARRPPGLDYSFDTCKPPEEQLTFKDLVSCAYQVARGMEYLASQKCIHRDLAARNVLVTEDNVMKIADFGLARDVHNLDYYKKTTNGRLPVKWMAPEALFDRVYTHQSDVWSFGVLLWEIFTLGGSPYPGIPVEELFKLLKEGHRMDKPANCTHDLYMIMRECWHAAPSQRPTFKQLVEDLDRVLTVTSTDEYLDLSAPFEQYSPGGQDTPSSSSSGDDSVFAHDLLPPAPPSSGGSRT

Point of comparison: FRQLPYCPSVE [CTNND2_Y508_Q507P_YF], phosphorylation enrichment 1.2. Against it:
- QITQVYGFYHE [PPP2CA_Y127_D131H] — lower, 0.753
- LPKVSCVKAID [GLRA1_Y307_Y307C] — lower, 1.14
- SNKLTYGTVVF [ACOX1_Y275_M278V] — lower, 0.617
- EALDFYGELRT [PTEN_Y155_V158L] — lower, 0.964
- WRGMPYGGRGD [TGM1_Y312_R307W] — lower, 0.486
- ALEKTYNTFRS [B4GALNT2_Y538_YF] — lower, 0.456
- GFSRHCEDGFP [CTNND1_Y217_Y217C_YF] — lower, 0.697
- DFDHSYFFIAT [ESD_Y262_G257D_YF] — higher, 7.62
- FLAVGYHKPRI [IDS_Y225_H229R] — lower, 0.5
- YGMSTYITRED [FNDC3B_Y180] — lower, 0.683
- RGVAHYILQTF [SLC39A4_Y359_T357A] — lower, 0.628
- MNKNAYHNVTT [ST3GAL6_Y306_A311T] — lower, 0.495
- TNLVPYTRIHF [TUBA1A_Y262_P263T] — lower, 0.506
- FTNELYMMMRD [FGFR1_Y730_C725Y_YF] — higher, 1.53
- QGIIIYKAAYF [SLC25A4_Y187_R188K] — the same, 1.2
- GTFEDYVEGLR [MYL6_Y89_YF] — lower, 0.685
- HLVLNYGVCFC [JAK2_Y613_V617F] — higher, 1.77
- IEELTYVIKQD [STX5_Y137_I138V] — lower, 0.954
- IEDNEYTAREG [HCK_Y411] — lower, 0.759
- EYRFIYMAVQH [PTPN11_Y515_Q510E] — higher, 1.71
- SDTGQYQCLVF [AXL_Y115] — higher, 1.65
- ALVLQYLRVPL [F9_Y371] — lower, 0.662
- RSGIFYKPESL [L2HGDH_Y103_H98R_YF] — lower, 0.702
- EEALHYLTRVE [SET_Y119] — lower, 0.724
- DKATEYSQFMR [MAX_Y70_I71S_YF] — lower, 0.397
- SHNKFYMLVAH [MFSD8_Y134_R139H_YF] — lower, 0.99
- LSDGPYSSPYE [EPOR_Y485_N487S] — higher, 1.61
- RDLRTYIMPAH [PNMT_Y256] — lower, 0.518
- KINKMYSDHAM — lower, 0.364
- VCHELYNTIRD [PBRM1_Y54] — lower, 0.683
- TLSGTYQFIIA [FOXL2_Y81_I80T_YF] — higher, 1.9
- ETLLYYGYRRS [POR_Y564_C566Y] — lower, 1.18

Tested on: Fer (mouse)
Experiment: as above

Point of comparison: RGVAHYILQTF [SLC39A4_Y359_T357A], phosphorylation enrichment 0.554. Against it:
- QITQVYGFYHE [PPP2CA_Y127_D131H] — higher, 0.872
- LPKVSCVKAID [GLRA1_Y307_Y307C] — higher, 0.577
- SNKLTYGTVVF [ACOX1_Y275_M278V] — higher, 1.01
- EALDFYGELRT [PTEN_Y155_V158L] — higher, 0.779
- WRGMPYGGRGD [TGM1_Y312_R307W] — lower, 0.31
- ALEKTYNTFRS [B4GALNT2_Y538_YF] — lower, 0.422
- GFSRHCEDGFP [CTNND1_Y217_Y217C_YF] — lower, 0.485
- DFDHSYFFIAT [ESD_Y262_G257D_YF] — higher, 0.786
- FLAVGYHKPRI [IDS_Y225_H229R] — lower, 0.402
- YGMSTYITRED [FNDC3B_Y180] — higher, 0.745
- MNKNAYHNVTT [ST3GAL6_Y306_A311T] — lower, 0.322
- TNLVPYTRIHF [TUBA1A_Y262_P263T] — lower, 0.385
- FTNELYMMMRD [FGFR1_Y730_C725Y_YF] — higher, 0.752
- QGIIIYKAAYF [SLC25A4_Y187_R188K] — higher, 1.01
- GTFEDYVEGLR [MYL6_Y89_YF] — lower, 0.454
- FRQLPYCPSVE [CTNND2_Y508_Q507P_YF] — higher, 0.603
- HLVLNYGVCFC [JAK2_Y613_V617F] — higher, 0.982
- IEELTYVIKQD [STX5_Y137_I138V] — lower, 0.54
- IEDNEYTAREG [HCK_Y411] — lower, 0.515
- EYRFIYMAVQH [PTPN11_Y515_Q510E] — higher, 3.17
- SDTGQYQCLVF [AXL_Y115] — higher, 2.7
- ALVLQYLRVPL [F9_Y371] — lower, 0.55
- RSGIFYKPESL [L2HGDH_Y103_H98R_YF] — lower, 0.458
- EEALHYLTRVE [SET_Y119] — lower, 0.492
- DKATEYSQFMR [MAX_Y70_I71S_YF] — lower, 0.392
- SHNKFYMLVAH [MFSD8_Y134_R139H_YF] — higher, 0.791
- LSDGPYSSPYE [EPOR_Y485_N487S] — higher, 0.831
- RDLRTYIMPAH [PNMT_Y256] — lower, 0.419
- KINKMYSDHAM — lower, 0.408
- VCHELYNTIRD [PBRM1_Y54] — higher, 0.683
- TLSGTYQFIIA [FOXL2_Y81_I80T_YF] — higher, 1.44
- ETLLYYGYRRS [POR_Y564_C566Y] — higher, 0.766

Target: Hck (UniProt P08631)
Sequence (P08631 whole entry, looked up): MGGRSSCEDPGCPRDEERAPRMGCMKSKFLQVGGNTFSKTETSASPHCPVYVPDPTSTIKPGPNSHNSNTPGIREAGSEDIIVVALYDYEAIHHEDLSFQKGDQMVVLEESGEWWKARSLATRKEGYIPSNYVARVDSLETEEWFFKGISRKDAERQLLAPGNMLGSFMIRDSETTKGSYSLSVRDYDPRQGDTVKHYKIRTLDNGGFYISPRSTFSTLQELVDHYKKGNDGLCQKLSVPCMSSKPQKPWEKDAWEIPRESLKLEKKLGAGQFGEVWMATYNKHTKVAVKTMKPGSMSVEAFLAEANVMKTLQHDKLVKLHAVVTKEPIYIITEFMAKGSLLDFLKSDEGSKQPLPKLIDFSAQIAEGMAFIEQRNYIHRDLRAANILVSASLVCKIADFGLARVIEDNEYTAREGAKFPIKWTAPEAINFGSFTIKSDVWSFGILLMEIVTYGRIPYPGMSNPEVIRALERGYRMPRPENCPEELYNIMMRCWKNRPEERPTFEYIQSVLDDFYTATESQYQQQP
Experiment: as above

Point of comparison: EEALHYLTRVE [SET_Y119], phosphorylation enrichment 0.586. Against it:
- QITQVYGFYHE [PPP2CA_Y127_D131H] — higher, 7.96
- LPKVSCVKAID [GLRA1_Y307_Y307C] — higher, 0.695
- SNKLTYGTVVF [ACOX1_Y275_M278V] — higher, 3.09
- EALDFYGELRT [PTEN_Y155_V158L] — higher, 1.25
- WRGMPYGGRGD [TGM1_Y312_R307W] — lower, 0.39
- ALEKTYNTFRS [B4GALNT2_Y538_YF] — higher, 0.704
- GFSRHCEDGFP [CTNND1_Y217_Y217C_YF] — lower, 0.441
- DFDHSYFFIAT [ESD_Y262_G257D_YF] — higher, 0.694
- FLAVGYHKPRI [IDS_Y225_H229R] — lower, 0.374
- YGMSTYITRED [FNDC3B_Y180] — higher, 0.873
- RGVAHYILQTF [SLC39A4_Y359_T357A] — higher, 0.685
- MNKNAYHNVTT [ST3GAL6_Y306_A311T] — lower, 0.385
- TNLVPYTRIHF [TUBA1A_Y262_P263T] — lower, 0.487
- FTNELYMMMRD [FGFR1_Y730_C725Y_YF] — higher, 1.99
- QGIIIYKAAYF [SLC25A4_Y187_R188K] — higher, 0.647
- GTFEDYVEGLR [MYL6_Y89_YF] — lower, 0.508
- FRQLPYCPSVE [CTNND2_Y508_Q507P_YF] — higher, 0.776
- HLVLNYGVCFC [JAK2_Y613_V617F] — higher, 1.04
- IEELTYVIKQD [STX5_Y137_I138V] — lower, 0.528
- IEDNEYTAREG [HCK_Y411] — higher, 0.588
- EYRFIYMAVQH [PTPN11_Y515_Q510E] — higher, 4.57
- SDTGQYQCLVF [AXL_Y115] — higher, 3.09
- ALVLQYLRVPL [F9_Y371] — lower, 0.536
- RSGIFYKPESL [L2HGDH_Y103_H98R_YF] — higher, 0.716
- DKATEYSQFMR [MAX_Y70_I71S_YF] — higher, 0.631
- SHNKFYMLVAH [MFSD8_Y134_R139H_YF] — higher, 0.695
- LSDGPYSSPYE [EPOR_Y485_N487S] — higher, 0.739
- RDLRTYIMPAH [PNMT_Y256] — higher, 0.682
- KINKMYSDHAM — lower, 0.308
- VCHELYNTIRD [PBRM1_Y54] — higher, 3.01
- TLSGTYQFIIA [FOXL2_Y81_I80T_YF] — higher, 1.34
- ETLLYYGYRRS [POR_Y564_C566Y] — higher, 14.6

Target: FGFR1 (UniProt P11362)
Sequence (P11362 whole entry, looked up): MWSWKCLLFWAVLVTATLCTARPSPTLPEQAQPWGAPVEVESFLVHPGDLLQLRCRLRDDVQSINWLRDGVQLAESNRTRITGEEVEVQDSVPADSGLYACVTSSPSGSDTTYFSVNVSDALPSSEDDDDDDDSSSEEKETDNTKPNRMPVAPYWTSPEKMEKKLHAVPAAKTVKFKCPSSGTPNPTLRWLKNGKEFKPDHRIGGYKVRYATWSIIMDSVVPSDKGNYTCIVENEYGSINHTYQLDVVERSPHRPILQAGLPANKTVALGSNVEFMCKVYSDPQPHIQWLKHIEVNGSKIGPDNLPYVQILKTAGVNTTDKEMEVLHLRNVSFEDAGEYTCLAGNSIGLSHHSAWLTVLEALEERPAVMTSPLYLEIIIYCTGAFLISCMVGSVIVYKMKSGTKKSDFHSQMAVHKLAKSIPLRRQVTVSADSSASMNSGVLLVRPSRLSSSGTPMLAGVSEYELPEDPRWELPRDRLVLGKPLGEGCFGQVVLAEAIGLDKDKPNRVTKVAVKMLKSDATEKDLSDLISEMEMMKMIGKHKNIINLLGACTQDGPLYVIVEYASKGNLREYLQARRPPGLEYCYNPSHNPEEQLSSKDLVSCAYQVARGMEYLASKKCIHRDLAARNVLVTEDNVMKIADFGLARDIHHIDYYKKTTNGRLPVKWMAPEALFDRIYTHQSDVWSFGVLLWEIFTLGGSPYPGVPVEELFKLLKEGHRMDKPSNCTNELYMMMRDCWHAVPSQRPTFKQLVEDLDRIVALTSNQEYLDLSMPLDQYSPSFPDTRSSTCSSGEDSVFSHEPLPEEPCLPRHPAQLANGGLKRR
Experiment: as above

Point of comparison: IEELTYVIKQD [STX5_Y137_I138V], phosphorylation enrichment 0.515. Against it:
- QITQVYGFYHE [PPP2CA_Y127_D131H] — higher, 0.614
- LPKVSCVKAID [GLRA1_Y307_Y307C] — higher, 0.734
- SNKLTYGTVVF [ACOX1_Y275_M278V] — lower, 0.466
- EALDFYGELRT [PTEN_Y155_V158L] — higher, 0.571
- WRGMPYGGRGD [TGM1_Y312_R307W] — lower, 0.388
- ALEKTYNTFRS [B4GALNT2_Y538_YF] — lower, 0.433
- GFSRHCEDGFP [CTNND1_Y217_Y217C_YF] — lower, 0.471
- DFDHSYFFIAT [ESD_Y262_G257D_YF] — higher, 8.9
- FLAVGYHKPRI [IDS_Y225_H229R] — lower, 0.379
- YGMSTYITRED [FNDC3B_Y180] — lower, 0.514
- RGVAHYILQTF [SLC39A4_Y359_T357A] — lower, 0.456
- MNKNAYHNVTT [ST3GAL6_Y306_A311T] — lower, 0.358
- TNLVPYTRIHF [TUBA1A_Y262_P263T] — lower, 0.468
- FTNELYMMMRD [FGFR1_Y730_C725Y_YF] — higher, 1.54
- QGIIIYKAAYF [SLC25A4_Y187_R188K] — higher, 0.948
- GTFEDYVEGLR [MYL6_Y89_YF] — higher, 0.545
- FRQLPYCPSVE [CTNND2_Y508_Q507P_YF] — higher, 0.526
- HLVLNYGVCFC [JAK2_Y613_V617F] — higher, 1.2
- IEDNEYTAREG [HCK_Y411] — higher, 0.722
- EYRFIYMAVQH [PTPN11_Y515_Q510E] — higher, 2.02
- SDTGQYQCLVF [AXL_Y115] — higher, 1.65
- ALVLQYLRVPL [F9_Y371] — higher, 0.582
- RSGIFYKPESL [L2HGDH_Y103_H98R_YF] — higher, 0.572
- EEALHYLTRVE [SET_Y119] — lower, 0.47
- DKATEYSQFMR [MAX_Y70_I71S_YF] — lower, 0.449
- SHNKFYMLVAH [MFSD8_Y134_R139H_YF] — higher, 0.652
- LSDGPYSSPYE [EPOR_Y485_N487S] — lower, 0.421
- RDLRTYIMPAH [PNMT_Y256] — higher, 0.694
- KINKMYSDHAM — lower, 0.315
- VCHELYNTIRD [PBRM1_Y54] — lower, 0.489
- TLSGTYQFIIA [FOXL2_Y81_I80T_YF] — higher, 2.22
- ETLLYYGYRRS [POR_Y564_C566Y] — higher, 1.3
